These are literature values, as cited in publication PMC3074115.

Series [1] deals with Ferrochelatase (Homo sapiens) (UniProt P22830). The series is described as follows: ITC. For orientation: Isothermal titration calorimetry measures the heat released or taken up as one component is titrated into another.
Another series has as its target IscU (Escherichia coli) (UniProt P0ACD4). The series is described as follows: ITC and SPR.

Chain of Ferrochelatase (Homo sapiens) (P22830 55-423): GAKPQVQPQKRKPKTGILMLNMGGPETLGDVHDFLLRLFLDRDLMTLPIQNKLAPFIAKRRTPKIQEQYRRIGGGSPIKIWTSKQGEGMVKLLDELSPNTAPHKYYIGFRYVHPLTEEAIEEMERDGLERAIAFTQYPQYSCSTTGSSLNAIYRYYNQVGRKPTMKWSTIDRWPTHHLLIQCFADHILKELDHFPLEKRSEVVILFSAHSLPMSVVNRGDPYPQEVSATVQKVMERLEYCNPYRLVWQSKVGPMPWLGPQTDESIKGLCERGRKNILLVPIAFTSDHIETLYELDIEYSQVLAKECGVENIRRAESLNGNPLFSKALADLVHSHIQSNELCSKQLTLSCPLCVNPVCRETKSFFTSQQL
Chain of IscU (Escherichia coli) (P0ACD4 whole entry): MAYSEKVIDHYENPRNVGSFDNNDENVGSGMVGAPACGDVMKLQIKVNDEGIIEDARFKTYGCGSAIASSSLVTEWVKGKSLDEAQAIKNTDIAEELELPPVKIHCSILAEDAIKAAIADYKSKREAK
Chain of IscS (P0A6B7 whole entry): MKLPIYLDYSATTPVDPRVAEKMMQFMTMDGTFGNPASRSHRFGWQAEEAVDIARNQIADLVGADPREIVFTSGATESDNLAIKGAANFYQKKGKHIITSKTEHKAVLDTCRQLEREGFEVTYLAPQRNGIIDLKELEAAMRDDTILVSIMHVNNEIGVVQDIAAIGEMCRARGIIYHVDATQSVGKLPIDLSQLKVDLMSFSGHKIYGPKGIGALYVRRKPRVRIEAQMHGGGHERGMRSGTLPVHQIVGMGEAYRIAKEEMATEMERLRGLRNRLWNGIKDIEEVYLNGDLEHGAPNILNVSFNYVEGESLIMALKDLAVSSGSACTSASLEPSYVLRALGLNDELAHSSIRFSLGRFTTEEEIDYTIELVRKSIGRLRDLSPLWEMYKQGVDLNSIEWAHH

What is called Kd is the equilibrium constant for the complex coming apart. With Frataxin (from UniProt Q16595), in series [1], the Kd is 17 nM.

As for IscS (from UniProt P0A6B7), in the series with IscU (Escherichia coli), the Kd is 2000 nM.
